In article PMC3751551:
Positions count from the first letter of the chain named. Names may count otherwise.

T1: Vm-EYFP, P05923
T1 chain: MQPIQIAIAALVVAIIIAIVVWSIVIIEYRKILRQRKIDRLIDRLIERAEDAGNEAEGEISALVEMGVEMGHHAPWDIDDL

B1: Rluc-BST2, Q10589 P40A; L41A; I42A (protein)
chain: MASTSYDYCRVPMEDGDKRCKLLLGIGILVLLIIVILGVAAAIFTIKANSEACRDGLRAVMECRNVTHLLQQELTEAQKGFQDVEAQAATCNHTVMALMASLDAEKAQGQKKVEELEGEITTLNHKLQDASAEVERLRRENQVLSVRIADKKYYPSSQDSS
B2: Rluc-BST2, Q10589 L41A (protein)
chain: B1 chain with A40P, A42I
B3: Rluc-BST2, Q10589 P40A (protein)
chain: B1 chain with A41L, A42I
B4: Rluc-BST2, Q10589 I43A; F44A; T45A (protein)
chain: B1 chain with A40P, A41L, A42I, I43A, F44A, T45A
B5: Rluc-BST2, Q10589 L22A; L23A; L24A (protein)
chain: B1 chain with L22A, L23A, L24A, A40P, A41L, A42I
B6: Rluc-BST2, Q10589 V39A (protein)
chain: B1 chain with V39A, A40P, A41L, A42I
B7: Rluc-BST2, Q10589 I42A (protein)
chain: B1 chain with A40P, A41L
B8: Rluc-BST2, Q10589 I36A (protein)
chain: B1 chain with I36A, A40P, A41L, A42I
B9: Rluc-BST2, Q10589 G38A (protein)
chain: B1 chain with G38A, A40P, A41L, A42I
B10: Rluc-BST2, Q10589 L31A; L32A; I33A (protein)
chain: B1 chain with L31A, L32A, I33A, A40P, A41L, A42I
B11: Rluc-BST2, Q10589 I34A; V35A; I36A (protein)
chain: B1 chain with I34A, V35A, I36A, A40P, A41L, A42I
B12: Rluc-BST2, Q10589 L37A; G38A; V39A (protein)
chain: B1 chain with L37A, G38A, V39A, A40P, A41L, A42I
B13: Rluc-BST2, Q10589 I34A (protein)
chain: B1 chain with I34A, A40P, A41L, A42I
B14: Rluc-BST2, Q10589 L37A (protein)
chain: B1 chain with L37A, A40P, A41L, A42I
B15: Rluc-BST2, Q10589 V35A (protein)
chain: B1 chain with V35A, A40P, A41L, A42I
B16: Rluc-BST2, Q10589 G25A; I26A; G27A (protein)
chain: B1 chain with G25A, I26A, G27A, A40P, A41L, A42I
B17: Rluc-BST2, Q10589 I28A; L29A; V30A (protein)
chain: B1 chain with I28A, L29A, V30A, A40P, A41L, A42I
B18: Rluc-BST2, Q10589 I46A; K47A (protein)
chain: B1 chain with A40P, A41L, A42I, I46A, K47A

Columns and labels:
Rluc-BST2 = Rluc-BST2 (UniProt Q10589); test: BRET assay; details: HEK293T cells; parent: est. 1.4; read off a plot
Vm-EYFP, P05923 = target: T1, Vm-EYFP, P05923; test: BRET assay; details: chain shown with the change, HEK293T cells, parent: est. 1.6, read off a plot
[1] = forty-eight hours post-transfection

Molecule | response (Rluc-BST2) | further results
Vm-EYFP (from UniProt P05923) V13A | 1.3 | –
Vm-EYFP (from UniProt P05923) V21A | 1.1 | –
Vm-EYFP (from UniProt P05923) S23A; I24A; V25A | 1.1 | –
Vm-EYFP (from UniProt P05923) I17A; A18V; I19A | 0.58 | –
Vm-EYFP (from UniProt P05923) A18V | 0.52 | –
Vm-EYFP (from UniProt P05923) I5A; V6A; A7V | 0.98 | –
Vm-EYFP (from UniProt P05923) E28A | 1.1 | –
Vm-EYFP (from UniProt P05923) I17A | 1.4 | –
Vm-EYFP (from UniProt P05923) V20A; V21A; W22A | 0.41 | –
Vm-EYFP (from UniProt P05923) I15A | 1.2 | –
Vm-EYFP (from UniProt P05923) A14V; I15A; I16A | 0.76 | –
Vm-EYFP (from UniProt P05923) W22A | 0.69 | –
Vm-EYFP (from UniProt P05923) I27A | 1.3 | –
Vm-EYFP (from UniProt P05923) A14V | 1.2 | –
Vm-EYFP (from UniProt P05923) V12A | 1.3 | –
Vm-EYFP (from UniProt P05923) I8A; V9A; A10V | 1.2 | –
Vm-EYFP (from UniProt P05923) L11A | 0.93 | –
Vm-EYFP (from UniProt P05923) L11A; V12A; V13A | 0.9 | –
Vm-EYFP (from UniProt P05923) I26A; I27A; E28A | 0.85 | –
Vm-EYFP (from UniProt P05923) V20A | 1.3 | –
Vm-EYFP (from UniProt P05923) I19A | 1.2 | –

Molecule | response (Rluc-BST2) | further results
Vm-EYFP (from UniProt P05923) I26A | 1.3 | –
Vm-EYFP (from UniProt P05923) I16A | 1.2 | –
B1 | – | response (Vm-EYFP, P05923; [1]): 0.82
B2 | – | response (Vm-EYFP, P05923): 0.93
B3 | – | response (Vm-EYFP, P05923): 1.1
B4 | – | response (Vm-EYFP, P05923; [1]): 1.6
B5 | – | response (Vm-EYFP, P05923; [1]): 1.3
B6 | – | response (Vm-EYFP, P05923): 1.6
B7 | – | response (Vm-EYFP, P05923): 1.4
B8 | – | response (Vm-EYFP, P05923): 1.5
B9 | – | response (Vm-EYFP, P05923): 1.5
B10 | – | response (Vm-EYFP, P05923; [1]): 1.3
B11 | – | response (Vm-EYFP, P05923; [1]): 0.88
B12 | – | response (Vm-EYFP, P05923; [1]): 0.95
B13 | – | response (Vm-EYFP, P05923): 1.1
B14 | – | response (Vm-EYFP, P05923): 0.77
B15 | – | response (Vm-EYFP, P05923): 1.5
B16 | – | response (Vm-EYFP, P05923; [1]): 1.7
B17 | – | response (Vm-EYFP, P05923; [1]): 1.4
B18 | – | response (Vm-EYFP, P05923; [1]): 1.6
